# Measured values published in patent US20150299708, “CD133 APTAMERS FOR DETECTION OF CANCER STEM CELLS” (Deakin University, published 2015).
# T1: CD133 (prominin-1) (Homo sapiens, UniProt O43490 O43490:20-865)
# T1 sequence: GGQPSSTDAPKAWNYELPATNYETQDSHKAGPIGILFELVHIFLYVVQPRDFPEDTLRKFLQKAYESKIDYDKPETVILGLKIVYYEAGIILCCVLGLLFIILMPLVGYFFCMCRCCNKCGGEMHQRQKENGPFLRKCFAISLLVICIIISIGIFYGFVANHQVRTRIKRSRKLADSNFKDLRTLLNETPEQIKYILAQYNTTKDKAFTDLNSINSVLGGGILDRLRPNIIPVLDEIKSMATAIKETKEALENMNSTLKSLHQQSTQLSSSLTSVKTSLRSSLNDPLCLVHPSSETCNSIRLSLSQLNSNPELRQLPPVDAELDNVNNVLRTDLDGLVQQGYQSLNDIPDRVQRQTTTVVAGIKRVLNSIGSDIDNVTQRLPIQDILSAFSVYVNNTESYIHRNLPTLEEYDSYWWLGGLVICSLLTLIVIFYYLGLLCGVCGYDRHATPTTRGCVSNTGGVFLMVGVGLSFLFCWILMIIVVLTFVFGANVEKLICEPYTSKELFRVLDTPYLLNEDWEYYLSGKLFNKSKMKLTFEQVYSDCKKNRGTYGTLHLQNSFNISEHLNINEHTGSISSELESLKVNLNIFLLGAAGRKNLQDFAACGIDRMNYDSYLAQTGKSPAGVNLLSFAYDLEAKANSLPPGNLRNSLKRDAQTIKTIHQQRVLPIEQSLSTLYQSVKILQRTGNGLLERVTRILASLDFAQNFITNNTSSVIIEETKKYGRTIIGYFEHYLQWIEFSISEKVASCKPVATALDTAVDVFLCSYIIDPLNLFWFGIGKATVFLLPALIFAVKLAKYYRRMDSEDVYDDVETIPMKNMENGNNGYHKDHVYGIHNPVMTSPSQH
# Tests used:
# [1] = system: CD133-negative cell surface (HEK293T or T98G; no CD133) (Homo sapiens); assay: flow; conditions: 2'-F pyrimidines, 3'-inverted dT, 37 C
# CD133 (prominin-1) [2] = biological target: T1, CD133 (prominin-1); assay: flow; HT-29 cells; 37 C 30 min, DPBS + MgCl2; conditions: tags: endogenous CD133 on CD133-positive HT-29 or Hep3B cells (ATCC); label: 5'-DY647
# From the text: (§1) CCCTCCTACATAGGGAGGAACGAGTTACTATAG -3′, and antisense oligonucleotide, 5′-CTATAGTAACTCGTTCCTCCCTATGTAGGAGGGTGGGTTGAGCGTTTATTCTTGTCTC -3′; CD133-1-2 (2nd truncation) was derived from a sense oligonucleotide: 5′-TAATACGACTCACTATAGCTCAACCCACCCTCCTACATAGGGAGGAACGAGT-3′and an antisense oligonucleotide, 5′-ACTCGTTCCTCCCTATGTAGGAGGGTGGGTTGAGC -3′; CD133-1-2-1 (3rd Truncation) was derived from a sense oligonucleotide, 5′-TAATACGACTCACTATACCACCCTCCTACATAGGGTGG-3′ and an antisense oligonucleotide, 5′-CCACCCTATGTAGGAGGGTGG-3′; and CD133-1-2-2 (4th Truncation) was derived from a sense oligonucleotide, TAATACGACTCACTATACCCTCCTACATAGGG-3′ and an antisense oligonucleotide, 5′-CCC TAT GTA GGA GGG-3′. CD133-2-1 (1st Truncation) was derived from a sense oligonucleotide 5′-TAATACGACTCACTATACAGAACGTATACTATTCTG-3′ and an antisense oligonucleotide, 5′-CAG AAT AGT ATA CGT TCT G-3′ (T7 RNA promoter sequence is underlined). […] The binding affinities of these two aptamers and a negative control aptamer was determined using CD133 positive (HT-29 and Hep3B) and CD133 negative cell lines (T98G and HEK293T). […]
# CD133 (prominin-1) [3] = biological target: T1, CD133 (prominin-1); assay: flow; Hep3B cells; 37 C 30 min, DPBS + MgCl2; conditions: tags: endogenous CD133 on CD133-positive HT-29 or Hep3B cells (ATCC); label: 5'-DY647
# From the text: as §1
# CD133 (prominin-1) [4] = biological target: T1, CD133 (prominin-1); assay: flow; HT-29 cells; 37 C 30 min, DPBS + MgCl2, tRNA, salmon sperm DNA; conditions: tags: endogenous CD133 on CD133-positive HT-29 or Hep3B cells (ATCC); label: 5'-DY647
# From the text: as §1
Molecule,Kd ([1]; CD133-negative HEK293T cells) [µM],Kd ([1]; CD133-negative T98G cells) [µM],Kd (CD133 (prominin-1) [2]) [µM],Kd (CD133 (prominin-1) [3]) [µM],Kd (CD133 (prominin-1) [4]) [µM]
CAGAACGUAUACUAUUCUG [CD133-2-1],1740,4.76,–,–,–
CCCUCCUACAUAGGG [CD133-1-2-2],120,275,–,–,–
"CAGAACGUAUACUAUUCUG (ssRNA, 2'-F pyrimidines; 3'-inverted dT) [CD133-2-1]",–,–,0.145,0.052,–
"CCCUCCUACAUAGGG (ssRNA, 2'-F pyrimidines; 3'-inverted dT) [CD133-1-2-2]",–,–,–,0.032,0.082
